Among the data in patent US11260101 (JINAN UNIVERSITY, dated 2022) are Ka and Kd values, retold here.

Usually Kd stands for the equilibrium constant for the complex coming apart. A high value points to lower affinity.

This assay concerns the target T1, fibroblast growth factor receptor 2 (FGFR2).
T1 construct: also called membrane receptor FGFR2
In words: isothermal titration calorimetry (ITC). The source says: 1. Detection of the Affinity Between the Repair Peptide R1 and FGFR2 by Using the ITC Method The affinity was detected by an isothermal totration calorimetry (ITC), and the detection result was shown in FIG. 1. […] (The K denoted the affinity constant, and the Kd denoted the dissociation constant. The larger the K was and the smaller the Kd was, the stronger the affinity was).
Background: ITC needs no label: the signal is the heat of the interaction.

T1 sequence (P21802 22-821): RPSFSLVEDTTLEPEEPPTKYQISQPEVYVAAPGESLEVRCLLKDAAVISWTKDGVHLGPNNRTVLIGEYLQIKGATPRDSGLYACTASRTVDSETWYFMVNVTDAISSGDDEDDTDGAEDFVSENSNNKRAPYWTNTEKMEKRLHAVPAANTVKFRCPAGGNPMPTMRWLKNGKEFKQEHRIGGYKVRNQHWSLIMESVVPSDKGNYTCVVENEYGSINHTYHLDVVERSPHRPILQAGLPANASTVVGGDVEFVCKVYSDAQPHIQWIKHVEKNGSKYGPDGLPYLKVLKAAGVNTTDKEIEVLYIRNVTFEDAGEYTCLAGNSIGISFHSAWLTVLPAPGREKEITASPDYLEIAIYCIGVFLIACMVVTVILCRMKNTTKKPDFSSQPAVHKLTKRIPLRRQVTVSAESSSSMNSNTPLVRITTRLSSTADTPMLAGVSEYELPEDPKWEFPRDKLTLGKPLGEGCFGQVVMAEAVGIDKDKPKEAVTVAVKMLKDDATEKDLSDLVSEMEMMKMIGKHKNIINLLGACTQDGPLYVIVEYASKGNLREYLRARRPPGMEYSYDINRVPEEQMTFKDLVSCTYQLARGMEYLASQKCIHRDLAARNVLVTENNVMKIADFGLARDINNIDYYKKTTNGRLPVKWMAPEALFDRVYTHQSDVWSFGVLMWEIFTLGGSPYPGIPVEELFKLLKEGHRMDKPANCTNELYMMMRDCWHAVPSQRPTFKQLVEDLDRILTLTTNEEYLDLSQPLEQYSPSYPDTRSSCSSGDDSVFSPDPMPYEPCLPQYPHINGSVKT

B1: repair peptide R1 (peptide)
peptide: GPANVET
notes: Linear 7-residue peptide made by chemical synthesis; also called R1 peptide; GPANVET
B1 yielded a Ka of 7.35e+08 M⁻¹ and a Kd of approximately 1.37 nM.
